Patent publication US20130005646A1 (Novo Nordisk, published 2013)
Starred links: 1 amine or outer side, 2 acyl side, 3 side chain; linkers in the order of their positions; H or OH if unused. Positions of bridges follow the written chain, without caps; N, C: chain ends. *: point of attachment. C20 diacid = O=C(O)CCCCCCCCCCCCCCCCCCC(=O)*; γGlu = O=C(O)[C@H](CCC(=O)[*:2])N[*:1]

What was measured:
[1] = biological target: T1, human amylin 3(a) receptor (human calcitonin receptor + RAMP-3) (human, UniProt P30988 25-474; O60896 24-148); assay: cell-based or functional assay
T1 sequence (looked up) 1: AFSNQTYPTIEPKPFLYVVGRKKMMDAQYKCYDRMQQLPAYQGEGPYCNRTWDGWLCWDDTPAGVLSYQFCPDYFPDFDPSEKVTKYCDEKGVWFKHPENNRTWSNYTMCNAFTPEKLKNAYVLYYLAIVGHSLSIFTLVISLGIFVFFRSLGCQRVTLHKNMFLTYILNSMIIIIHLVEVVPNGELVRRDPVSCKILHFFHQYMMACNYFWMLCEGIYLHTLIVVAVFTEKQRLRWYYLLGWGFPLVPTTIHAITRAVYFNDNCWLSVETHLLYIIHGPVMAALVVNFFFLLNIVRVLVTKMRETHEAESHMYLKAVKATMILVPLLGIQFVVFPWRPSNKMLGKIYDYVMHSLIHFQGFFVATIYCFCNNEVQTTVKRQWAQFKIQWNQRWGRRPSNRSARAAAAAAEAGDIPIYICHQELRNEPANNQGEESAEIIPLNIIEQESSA
T1 sequence (looked up) 2: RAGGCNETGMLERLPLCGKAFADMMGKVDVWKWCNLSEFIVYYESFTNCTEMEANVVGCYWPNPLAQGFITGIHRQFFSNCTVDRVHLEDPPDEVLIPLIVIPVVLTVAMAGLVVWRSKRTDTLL

[2] = biological target: T2, human calcitonin (a) receptor (human, UniProt P30988 25-474); assay: cell-based or functional assay
T2 sequence (looked up): T1 sequence (looked up) 1

B1: N-alpha-[(S)-4-Carboxy-4-(19-carboxynonadecanoylamino)butyryl]-[Arg17,Pro37]-pramlintide (peptide)
peptide: {C20 diacid-γGlu}-KCNTATCATQRLANFLRHSSNNFGPILPPTNVGSNTP-NH2
modifications: disulfide 2-7
SMILES: CC[C@H](C)[C@H](NC(=O)[C@@H]1CCCN1C(=O)CNC(=O)[C@H](Cc1ccccc1)NC(=O)[C@H](CC(N)=O)NC(=O)[C@H](CC(N)=O)NC(=O)[C@H](CO)NC(=O)[C@H](CO)NC(=O)[C@H](Cc1c[nH]cn1)NC(=O)[C@H](CCCNC(=N)N)NC(=O)[C@H](CC(C)C)NC(=O)[C@H](Cc1ccccc1)NC(=O)[C@H](CC(N)=O)NC(=O)[C@H](C)NC(=O)[C@H](CC(C)C)NC(=O)[C@H](CCCNC(=N)N)NC(=O)[C@H](CCC(N)=O)NC(=O)[C@@H](NC(=O)[C@H](C)NC(=O)[C@@H]1CSSC[C@H](NC(=O)[C@H](CCCCN)NC(=O)CC[C@H](NC(=O)CCCCCCCCCCCCCCCCCCC(=O)O)C(=O)O)C(=O)N[C@@H](CC(N)=O)C(=O)N[C@@H]([C@@H](C)O)C(=O)N[C@@H](C)C(=O)N[C@@H]([C@@H](C)O)C(=O)N1)[C@@H](C)O)C(=O)N[C@@H](CC(C)C)C(=O)N1CCC[C@H]1C(=O)N1CCC[C@H]1C(=O)N[C@H](C(=O)N[C@@H](CC(N)=O)C(=O)N[C@H](C(=O)NCC(=O)N[C@@H](CO)C(=O)N[C@@H](CC(N)=O)C(=O)N[C@H](C(=O)N1CCC[C@H]1C(N)=O)[C@@H](C)O)C(C)C)[C@@H](C)O
[1]
  Amylin receptor human EC50: 0.053 nM
[2]
  CTa receptor human EC50: 0.057 nM

B2: N-alpha-[(S)-4-Carboxy-4-(19-carboxynonadecanoylamino)butyryl]-Glu-Glu-[Arg1,Glu14,Arg17,Pro37]-pramlintide (peptide)
peptide: {C20 diacid-γGlu}-EERCNTATCATQRLAEFLRHSSNNFGPILPPTNVGSNTP-NH2
modifications: disulfide 4-9
SMILES: CC[C@H](C)[C@H](NC(=O)[C@@H]1CCCN1C(=O)CNC(=O)[C@H](Cc1ccccc1)NC(=O)[C@H](CC(N)=O)NC(=O)[C@H](CC(N)=O)NC(=O)[C@H](CO)NC(=O)[C@H](CO)NC(=O)[C@H](Cc1c[nH]cn1)NC(=O)[C@H](CCCNC(=N)N)NC(=O)[C@H](CC(C)C)NC(=O)[C@H](Cc1ccccc1)NC(=O)[C@H](CCC(=O)O)NC(=O)[C@H](C)NC(=O)[C@H](CC(C)C)NC(=O)[C@H](CCCNC(=N)N)NC(=O)[C@H](CCC(N)=O)NC(=O)[C@@H](NC(=O)[C@H](C)NC(=O)[C@@H]1CSSC[C@H](NC(=O)[C@H](CCCNC(=N)N)NC(=O)[C@H](CCC(=O)O)NC(=O)[C@H](CCC(=O)O)NC(=O)CC[C@H](NC(=O)CCCCCCCCCCCCCCCCCCC(=O)O)C(=O)O)C(=O)N[C@@H](CC(N)=O)C(=O)N[C@@H]([C@@H](C)O)C(=O)N[C@@H](C)C(=O)N[C@@H]([C@@H](C)O)C(=O)N1)[C@@H](C)O)C(=O)N[C@@H](CC(C)C)C(=O)N1CCC[C@H]1C(=O)N1CCC[C@H]1C(=O)N[C@H](C(=O)N[C@@H](CC(N)=O)C(=O)N[C@H](C(=O)NCC(=O)N[C@@H](CO)C(=O)N[C@@H](CC(N)=O)C(=O)N[C@H](C(=O)N1CCC[C@H]1C(N)=O)[C@@H](C)O)C(C)C)[C@@H](C)O
[1]
  Amylin receptor human EC50: 0.313 nM
[2]
  CTa receptor human EC50: 0.526 nM
